The values that follow come from publication PMC2654718.

pKd: −log10 of the molar value.

Experiment [1] concerns the target MBP-VDR-LBDmt (human). Briefly: ITC.
The target of experiment [2] is MBP-VDR-LBDmt (human). Briefly: pull-down.

In the experiment with MBP-VDR-LBDmt (human) [1], SRC2-3 peptide, unlabeled had a pKd of 6.76, a dH of -6.7 kcal/mol and a stoichiometry N of 1.02.

Regarding SRC2-3 peptide, Texas Red labeled, in the experiment with MBP-VDR-LBDmt (human) [1], the pKd is 6.55, the dH was -2.2 kcal/mol and the stoichiometry N was 0.93.

Substance SRC3-1 peptide, unlabeled showed a peptide concentration at which inhibition of SRC2-VDR binding was observed with MBP-VDR-LBDmt (human) [2] of over 50 µM.
